Changes are numbered by the printed parent chain.
T1: murine PD-1 protein (murine, UniProt Q02242 25-167, limits assumed)
T1 construct: bought
T1 sequence (looked up): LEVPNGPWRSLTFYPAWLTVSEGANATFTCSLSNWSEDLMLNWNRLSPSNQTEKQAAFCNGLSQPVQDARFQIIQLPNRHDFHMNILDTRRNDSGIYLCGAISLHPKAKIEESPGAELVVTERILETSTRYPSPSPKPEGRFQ

T2: ICOS (UniProt Q9Y6W8 21-140, limits assumed)
T2 construct: bought
T2 sequence (looked up): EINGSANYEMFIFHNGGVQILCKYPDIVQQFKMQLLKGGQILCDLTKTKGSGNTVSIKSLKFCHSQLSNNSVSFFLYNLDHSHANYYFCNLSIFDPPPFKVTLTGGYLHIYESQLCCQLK

B1: NB222 (Fc fusion)
heavy: QVQLVESGGGLVQAGGSLRLSCAASGGTFSNFNVGWFRQAPGKEREFVAASNWSAGTTHYSDSVKGRFTISRDNAANTAYLQMNSLRPDDTAVYYCNRVIRGTTYPDVYYGMDYWGKGTLVTVSS
notes: not shown: IgG4 constant region of vector pCDNA3.4-IgG4
B2: NB194-P29-z1 (Fc fusion)
heavy: QVQLVESGGGLVQPGGSLRLSCSASGHSFSIYDMGWFRQAADKERESVAVINFGRGTTYYAESVKGRFTISRDNAKNTVYLQMNSLRAEDTAVYSCGIDRRQYGLGIPPLADHWGQGSQVTVSS
notes: as for B1
B3: NB194-P29-z9 (Fc fusion)
heavy: B2 heavy with H27F, S28T
notes: as for B1
B4: NB194-P29-z8 (Fc fusion)
heavy: B2 heavy with A41P, D42G
notes: as for B1
B5: NB194-P29-z3 (Fc fusion)
heavy: B2 heavy with R19T
notes: as for B1
B6: NB194-P29-z7 (Fc fusion)
heavy: B2 heavy with R72L
notes: as for B1
B7: NB194-P29-z6 (Fc fusion)
heavy: B2 heavy with D42G
notes: as for B1
B8: NB194-P29-z4 (Fc fusion)
heavy: B2 heavy with S23T
notes: as for B1
B9: NB194-P29-z2 (Fc fusion)
heavy: B2 heavy with V2L
notes: as for B1
B10: NB194-z5 (Fc fusion)
heavy: EVQLVESGGGLVQPGGSLRLSCAASGRPFSIYDMGWFRQAPDKERESVAVINLSRGNTYYADSVKGRFTISRDNAKNTVYLQMNSLRAEDTAVYSCGVDRRQYGLGIPPLADHWGQGTQVTVSS
notes: format not restated; not shown: IgG4 constant region of vector pCDNA3.4-IgG4
B11: NB194-P29-z5 (Fc fusion)
heavy: B2 heavy with A41P
notes: as for B1
B12: NB194-P29-z10 (Fc fusion)
heavy: B2 heavy with Q1E, V2L, S23A
notes: as for B1
B13: NB194-z2 (Fc fusion)
heavy: B10 heavy with N52S, N74S
notes: as for B10
B14: NB194-z1 (Fc fusion)
heavy: B10 heavy with N52S
notes: as for B10
B15: NB194-z4 (Fc fusion)
heavy: B10 heavy with S54A
notes: as for B10
B16: NB211 (Fc fusion)
heavy: EVQVVETGGGLAQAGGSLRLSCAASGRTFSGYTVGWYRQSPGKEREFVAAISYSGGSTDYADSVKGRFTISRDNANNTVYLQMGSLKAEDTAVYYCNRVIRGTRDPSIYYVMDYWGKGTLVTVSS
notes: as for B1
B17: NB202 (Fc fusion)
heavy: EVQVVESGGGLVQAGGSLRLSCTASGDTRLASAMGWYRQAPGKERELVAAITNSGLTYYADSVEGRFTISRDSAKNTVYLQMNSLKPEDTAVYYCNAGAPPPGGLGYDESDYWGQGTQVTVSS
notes: as for B1
B18: NB223 (Fc fusion)
heavy: EVQLVESGGGLVQAGGSLRLSCAASGRTFSSYGMGWFRQAPGKEREFVAAVNWSNSSAYYADSVKDRFTISSDNAKSTIYLQMNSLKPEDTAVYYCRPYSDYVTYDPDDYDYWGQGTQVTVSS
notes: as for B1
B19: NB171 (Fc fusion)
heavy: QVQLVESGGGLVQAGGSLRLSCAASGRTFSSYAMGWFRQALGKEREWIAGVSMSGRTTYYAAPVKDRFTISRDNAKNTVTLQMNSLKPEDTAVYYCAAGRAQAEIPIMRAQEYDSWGQGTQVTVSS
notes: as for B1
B20: NB173 (Fc fusion)
heavy: QVQLQESGGGLVQAGGSLRLSCAASGRSFNSYAMGWFRQAPGKEREFVAAISQNGGTQGYAEAVKDRFTISRDNTNKVVALQMNSLKPEDTAAYYCAADGDASDISYAPPRDYEYDYWGQGTQVTVSS
notes: as for B1
B21: NB147 (Fc fusion)
heavy: EVQVVESGGGVVQAGDSLRLSCVASGRTFSSVAMGWFRQAPGKEREFVAAISRSGGSAGYSDSVKDRSTISRDNAKNTVYLQMNSLKPEDTAVYFCAASELDFCSTLGCYDYWGQGIQVTFSS
notes: as for B1
B22: NB532 (Fc fusion)
heavy: QVQLVETGGGLVQAGGSLRLSCAASGRTFSSYNMGWFRQAPGKEREFVAAISWSGGSQGYAAAVKDRFTISRDNAKNTVYLQMNSLKAEDTAVYYCAAKYHSGSYYYTSIRPEEYDYWGQGTQVTVSS
notes: as for B1
B23: NB215 (Fc fusion)
heavy: EVQVVESGGGLVQAGDSLRLSCAASGGTISGYEMGWFRQAPGKEREFVAGISRNGRSTGYSDSAKDRFTISRDNAKNTVYLQMNSLKPEDTAVYYCAAGLKADYGDSYVDTSTRNYNYWGQGTQVTVSS
notes: as for B1
B24: NB734 (Fc fusion)
heavy: QVQLVETGGGLVQAGGSLRLSCAASGDTILFSAVGWHRQAPGKERELVAAITNSGVTYYADSVKGRFSISRDNAKNTVYLQMNSLKPEDTAVYYCNAGAPPPGEFGYDESDYWGQGTQVTVSS
notes: as for B1
B25: NB220 (Fc fusion)
heavy: QVQLQESGGGLLQAGDSLRLSCIVSGRTFSSYAIGWFRQAPGKEREFVAGINWSGRSQYYSESVKDRFTVSIDNAKNTVYLQMNSLKPEDTAVYYCAAERHLGVPTVRDDEYDDWGQGTQVTVSS
notes: as for B1
B26: NB182-z4 (Fc fusion)
heavy: EVQLVESGGGLVQPGGSLRLSCSASGDTSFISAAGWYRQAPGKERELVSAITNTGITYYPDSVKGRFTISRDNSKNTVYLQMNNLRAEDTAVYYCNAGAPPPGGLGYDESDYWGQGTQVTVSS
notes: as for B10
B27: NB182-z3 (Fc fusion)
heavy: B26 heavy with V78L
notes: as for B10
B28: NB182-z5 (Fc fusion)
heavy: B26 heavy with S49A, N84S, Q118L
notes: as for B10
B29: NB182 (Fc fusion)
heavy: B26 heavy with E1Q, P14A, S23A, S49A, S74A, R86K, A87P
notes: as for B1
B30: NB182-z1 (Fc fusion)
heavy: B26 heavy with N84S
notes: as for B10
B31: NB182-z2 (Fc fusion)
heavy: B26 heavy with S74A, N84S
notes: as for B10

Assays:
human PD-1.Fc = molecular target: T3, human PD-1.Fc (human, UniProt Q15116 25-170, limits assumed); experiment: SPR, antibody captured on protein A, PD-1.Fc in flow
T3 construct: also called PD-1; Fc protein; PD-1.hFc; not shown: human IgG Fc fragment
T3 sequence (Q15116 25-170 limits assumed): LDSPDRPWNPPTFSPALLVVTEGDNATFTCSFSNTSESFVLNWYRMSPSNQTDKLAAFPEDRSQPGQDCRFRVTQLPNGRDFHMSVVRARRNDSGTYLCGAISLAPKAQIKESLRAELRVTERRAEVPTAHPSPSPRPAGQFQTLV

PD-1 = molecular target: T4, PD-1 (UniProt Q15116 25-170, limits assumed); experiment: SPR; set-up and antigen form not restated
T4 construct: also called PD-1 protein
T4 sequence (Q15116 25-170 limits assumed): as above

PD-1.His = molecular target: T5, PD-1.His (UniProt Q15116 25-170, limits assumed); experiment: SPR, antibody captured on protein A, PD-1.His in flow
T5 construct: not shown: His tag
T5 sequence (Q15116 25-170 limits assumed): as above

[1] = molecular target: PD-1 on GS-J2/PD1 effector cells (UniProt Q15116 25-288, limits assumed); experiment: cell-based or functional assay
Sequence of PD-1 on GS-J2/PD1 effector cells (Q15116 25-288 limits assumed): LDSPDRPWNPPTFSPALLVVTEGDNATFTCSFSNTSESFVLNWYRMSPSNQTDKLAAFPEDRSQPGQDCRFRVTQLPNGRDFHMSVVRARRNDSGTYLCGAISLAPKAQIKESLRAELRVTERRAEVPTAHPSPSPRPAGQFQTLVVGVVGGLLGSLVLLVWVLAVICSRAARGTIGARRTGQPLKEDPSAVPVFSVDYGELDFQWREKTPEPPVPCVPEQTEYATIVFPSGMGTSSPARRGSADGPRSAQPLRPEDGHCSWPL

murine PD-1 protein = molecular target: T1, murine PD-1 protein; experiment: ELISA on coated protein, anti-human Fc HRP
ICOS = molecular target: T2, ICOS; experiment: ELISA on coated protein, anti-human Fc HRP
CD28 = molecular target: T6, CD28 (UniProt P10747 19-152); experiment: ELISA on coated protein, anti-human Fc HRP
T6 construct: bought

CTLA-4 = molecular target: T7, CTLA-4 (UniProt P16410 36-161, limits assumed); experiment: ELISA on coated protein, anti-human Fc HRP
T7 construct: bought
T7 sequence (P16410 36-161 limits assumed): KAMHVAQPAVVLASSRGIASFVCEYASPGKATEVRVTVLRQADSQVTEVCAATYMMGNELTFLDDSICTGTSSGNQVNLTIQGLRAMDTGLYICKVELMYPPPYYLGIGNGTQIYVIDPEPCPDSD

| Binder | Kd (human PD-1.Fc) [nM] | koff (human PD-1.Fc) [s⁻¹] | kon (human PD-1.Fc) [M⁻¹ s⁻¹] | Kd (PD-1) [nM] | koff (PD-1) [s⁻¹] | kon (PD-1) [M⁻¹ s⁻¹] | Kd (PD-1.His) [nM] | koff (PD-1.His) [s⁻¹] | kon (PD-1.His) [M⁻¹ s⁻¹] | further results |
| --- | --- | --- | --- | --- | --- | --- | --- | --- | --- | --- |
| B1 | 0.149 | 0.000306 | 2.05e+06 | – | – | – | – | – | – | – |
| B2 | – | – | – | 0.263 | 3.06e-05 | 117000 | – | – | – | – |
| B3 | – | – | – | 0.406 | 5.03e-05 | 124000 | – | – | – | – |
| B4 | – | – | – | 0.235 | 2.54e-05 | 108000 | – | – | – | – |
| B5 | – | – | – | 0.202 | 3.75e-05 | 186000 | – | – | – | – |
| B6 | – | – | – | 0.15 | 2.18e-05 | 145000 | – | – | – | – |
| B7 | – | – | – | 0.268 | 3.02e-05 | 113000 | – | – | – | – |
| B8 | – | – | – | 0.222 | 2.61e-05 | 117000 | – | – | – | – |
| B9 | – | – | – | 0.129 | 1.66e-05 | 129000 | – | – | – | – |
| B10 | – | – | – | – | – | – | 0.598 | 7.92e-05 | 133000 | – |
| B11 | – | – | – | 0.2 | 2.43e-05 | 121000 | – | – | – | – |
| B12 | – | – | – | 0.179 | 1.74e-05 | 96800 | – | – | – | – |
| B13 | – | – | – | – | – | – | 1.01 | 9.88e-05 | 97600 | – |
| B14 | – | – | – | – | – | – | 0.837 | 0.000107 | 128000 | – |
| B15 | – | – | – | – | – | – | 0.586 | 7.79e-05 | 133000 | – |
| B16 | 1.33 | 0.003 | 2.26e+06 | – | – | – | – | – | – | – |

| Binder | Kd (human PD-1.Fc) [nM] | koff (human PD-1.Fc) [s⁻¹] | kon (human PD-1.Fc) [M⁻¹ s⁻¹] | Kd (PD-1) [nM] | koff (PD-1) [s⁻¹] | kon (PD-1) [M⁻¹ s⁻¹] | Kd (PD-1.His) [nM] | koff (PD-1.His) [s⁻¹] | kon (PD-1.His) [M⁻¹ s⁻¹] | further results |
| --- | --- | --- | --- | --- | --- | --- | --- | --- | --- | --- |
| B17 | 0.328 | 6.77e-05 | 206000 | – | – | – | – | – | – | – |
| B18 | 6.39 | 0.000863 | 135000 | – | – | – | – | – | – | – |
| B19 | 6.21 | 0.000309 | 49700 | – | – | – | – | – | – | – |
| B20 | 83.1 | 0.000179 | 2150 | – | – | – | – | – | – | – |
| B21 | 2.75 | 0.000153 | 55800 | – | – | – | – | – | – | – |
| B22 | 7.03 | 0.00092 | 131000 | – | – | – | – | – | – | – |
| B23 | 10.4 | 0.000508 | 49000 | – | – | – | – | – | – | – |
| B24 | 0.292 | 6.88e-05 | 236000 | – | – | – | – | – | – | – |
| B25 | 0.219 | 0.000323 | 1.48e+06 | – | – | – | – | – | – | – |
| B26 | – | – | – | – | – | – | 15 | 9.73e-05 | 6480 | – |
| B27 | – | – | – | – | – | – | 11.8 | 7.11e-05 | 6000 | – |
| B28 | – | – | – | – | – | – | 14 | 9.07e-05 | 6460 | – |
| B29 | 8.67 | 6.4e-05 | 7380 | – | – | – | 8.67 | 6.4e-05 | 7380 | Reporter Gene Assay EC50 (luciferase) [1]: 16.3 nM; binding result (murine PD-1 protein): no binding (tested: 0.1µg); binding result (ICOS): no binding; binding result (CD28): no binding; binding result (CTLA-4): no binding |
| B30 | – | – | – | – | – | – | 8.25 | 7.61e-05 | 9220 | – |
| B31 | – | – | – | – | – | – | 8.2 | 4.59e-05 | 5600 | – |
